Assay results: the Immune Epitope Database (IEDB)

What was measured:
[1] = biological target: HLA-B*07:02; test: IEDB peptide-MHC binding, purified MHC/competitive/fluorescence; ≥ and ≤ were set here for values at or beyond the usual limits of such assays; details: source organism: Zaire ebolavirus
[2] = biological target: HLA-B*08:01; test: as above
[3] = biological target: HLA-A*24:02; test: as above
[4] = biological target: HLA-B*57:01; test: IEDB peptide-MHC binding, purified MHC/direct/fluorescence; filed as Kd, often an IC50 or EC50 that approximates it; ≥ and ≤ were set here for values at or beyond the usual limits of such assays
[5] = biological target: HLA-B*15:09; test: as above; details: source organism: Vibrio cholerae V52
[6] = biological target: HLA-A*02:01; test: as above
[7] = biological target: HLA-B*07:02; test: as above
[8] = biological target: HLA-B*39:01; test: as above
[9] = biological target: HLA-A*31:01; test: as above
[10] = biological target: HLA-B*08:01; test: as above; details: source organism: Vibrio cholerae V52
[11] = biological target: HLA-A*11:01; test: as above
[12] = biological target: HLA-B*48:01; test: as above
[13] = biological target: HLA-A*26:02; test: as above
[14] = biological target: HLA-A*68:02; test: as above
[15] = biological target: HLA-B*27:05; test: as above
[16] = biological target: HLA-B*58:01; test: as above
[17] = biological target: HLA-A*26:03; test: as above
[18] = biological target: HLA-B*40:01; test: as above; details: source organism: Vibrio cholerae
[19] = biological target: HLA-B*44:02; test: as above; details: source organism: Vibrio cholerae
[20] = biological target: HLA-B*18:01; test: as above
[21] = biological target: HLA-B*15:17; test: as above
[22] = biological target: HLA-A*01:01; test: as above
[23] = biological target: HLA-B*08:03; test: as above; details: source organism: Vibrio cholerae V52
[24] = biological target: HLA-A*69:01; test: as above
[25] = biological target: HLA-B*08:02; test: as above
[26] = biological target: HLA-A*30:01; test: IEDB peptide-MHC binding, purified MHC/competitive/fluorescence; filed as Kd, often an IC50 or EC50 that approximates it; ≥ and ≤ were set here for values at or beyond the usual limits of such assays; details: source organism: Vibrio cholerae 2740-80
[27] = biological target: HLA-A*24:03; test: IEDB peptide-MHC binding, purified MHC/direct/fluorescence; filed as Kd, often an IC50 or EC50 that approximates it; ≥ and ≤ were set here for values at or beyond the usual limits of such assays
[28] = biological target: HLA-A*02:16; test: as above
[29] = biological target: HLA-A*02:19; test: as above
[30] = biological target: HLA-B*27:03; test: as above
[31] = biological target: HLA-A*02:12; test: as above
[32] = biological target: HLA-A*29:02; test: as above; details: source organism: Burkholderia mallei ATCC 23344
[33] = biological target: HLA-A*03:01; test: as above
[34] = biological target: HLA-B*46:01; test: as above
[35] = biological target: HLA-B*15:02; test: as above; details: source organism: Aracatuba virus
[36] = biological target: HLA-B*15:01; test: as above
[37] = biological target: HLA-B*35:01; test: IEDB peptide-MHC binding, purified MHC/competitive/fluorescence; filed as Kd, often an IC50 or EC50 that approximates it; ≥ and ≤ were set here for values at or beyond the usual limits of such assays; details: source organism: Vaccinia virus
[38] = biological target: HLA-B*15:17; test: as above; details: source organism: Vaccinia virus
[39] = biological target: HLA-A*02:01; test: IEDB peptide-MHC binding, purified MHC/competitive/fluorescence; ≥ and ≤ were set here for values at or beyond the usual limits of such assays
[40] = biological target: HLA-B*15:01; test: as above; details: source organism: Zaire ebolavirus
[41] = biological target: HLA-A*02:11; test: IEDB peptide-MHC binding, purified MHC/direct/fluorescence; filed as Kd, often an IC50 or EC50 that approximates it; ≥ and ≤ were set here for values at or beyond the usual limits of such assays
[42] = biological target: HLA-B*35:01; test: as above
[43] = biological target: HLA-A*26:01; test: as above
[44] = biological target: HLA-B*51:01; test: as above; details: source organism: Vibrio vulnificus CMCP6
[45] = biological target: HLA-A*02:03; test: as above
[46] = source organism: Zaire ebolavirus
[47] = source organism: Vibrio cholerae
[48] = source organism: Vibrio cholerae V52
[49] = source organism: Burkholderia mallei ATCC 23344
[50] = source organism: Aracatuba virus
[51] = source organism: Vaccinia virus Copenhagen
[52] = source organism: Vibrio vulnificus CMCP6
[53] = source organism: Salmonella enterica subsp. enterica serovar Typhimurium

ERGVRLHPL
IC50 [1]: ≥ 95.4 µM
IC50 [2, 46]: 8.92 µM
IC50 [3, 46]: 44.3 µM

REVFDYLLP
Kd [4, 47]: ≥ 20 µM
Kd [5]: ≥ 20 µM
Kd [6, 47]: ≥ 20 µM
Kd [7, 47]: ≥ 20 µM
Kd [8, 48]: ≥ 20 µM
Kd [9, 47]: ≥ 20 µM
Kd [10]: ≥ 20 µM
Kd [11, 47]: ≥ 20 µM
Kd [12, 47]: ≥ 20 µM
Kd [13, 48]: ≥ 20 µM
Kd [14, 47]: ≥ 20 µM
Kd [15, 47]: ≥ 20 µM
Kd [16, 47]: ≥ 20 µM
Kd [17, 48]: ≥ 20 µM
Kd [18]: 0.077 µM
Kd [19]: ≥ 20 µM
Kd [20, 47]: ≥ 20 µM
Kd [21, 47]: ≥ 20 µM
Kd [22, 47]: ≥ 20 µM
Kd [23]: ≥ 20 µM
Kd [24, 47]: ≥ 20 µM
Kd [25, 48]: ≥ 20 µM
Kd [26]: ≥ 20 µM

MSADNAGAL
Kd [27, 49]: ≥ 20 µM
Kd [4, 49]: ≥ 20 µM
Kd [28, 49]: ≥ 20 µM
Kd [6, 49]: ≥ 20 µM
Kd [29, 49]: ≥ 20 µM
Kd [30, 49]: ≥ 20 µM
Kd [31, 49]: ≥ 20 µM
Kd [20, 49]: ≥ 20 µM
Kd [32]: ≥ 20 µM
Kd [33, 49]: ≥ 20 µM

LLLLISLVY
Kd [4, 50]: ≥ 20 µM
Kd [34, 50]: ≥ 20 µM
Kd [6, 50]: ≥ 20 µM
Kd [7, 50]: ≥ 20 µM
Kd ([8]; source organism: Variola virus): ≥ 20 µM
Kd [9, 50]: ≥ 20 µM
Kd [11, 50]: ≥ 20 µM
Kd [12, 50]: ≥ 20 µM
Kd ([13]; source organism: Variola virus): ≥ 20 µM
Kd [14, 50]: ≥ 20 µM
Kd [15, 50]: ≥ 20 µM
Kd [16, 50]: ≥ 20 µM
Kd [35]: 4.57 µM
Kd ([17]; source organism: Variola virus): ≥ 20 µM
Kd [36, 50]: ≥ 20 µM
Kd [22, 50]: ≥ 20 µM
Kd [24, 50]: ≥ 20 µM
Kd ([25]; source organism: Variola virus): ≥ 20 µM
Kd [37]: ≥ 20 µM
Kd [38]: ≥ 20 µM

VMNHKNKFM
IC50 [39, 46]: 3.51 µM
IC50 [2, 46]: 8.29 µM
IC50 [3, 46]: 2.14 µM
IC50 [40]: 18 µM

YFLKIKVTA
IC50 [39, 51]: 6.34 µM
IC50 [2, 51]: 8.88 µM
IC50 [3, 51]: 3.76 µM

EMSLADYLY
Kd [27, 52]: ≥ 20 µM
Kd [41, 52]: ≥ 20 µM
Kd [4, 52]: ≥ 20 µM
Kd [34, 52]: ≥ 20 µM
Kd [28, 52]: ≥ 20 µM
Kd [6, 52]: ≥ 20 µM
Kd [7, 52]: ≥ 20 µM
Kd [29, 52]: ≥ 20 µM
Kd [30, 52]: ≥ 20 µM
Kd [8, 52]: ≥ 20 µM
Kd [42, 52]: 0.027 µM
Kd [43, 52]: ≥ 20 µM
Kd [31, 52]: ≥ 20 µM
Kd [36, 52]: 0.029 µM
Kd [44]: ≥ 20 µM
Kd [45, 52]: ≥ 20 µM
Kd [33, 52]: ≥ 20 µM

WPVMQWLTA
Kd [41, 53]: ≥ 20 µM
Kd [4, 53]: ≥ 20 µM
Kd [34, 53]: ≥ 20 µM
Kd [28, 53]: ≥ 20 µM
Kd [6, 53]: ≥ 20 µM
Kd [7, 53]: 0.289 µM
Kd [29, 53]: ≥ 20 µM
Kd [30, 53]: ≥ 20 µM
Kd [42, 53]: 0.024 µM
Kd [43, 53]: ≥ 20 µM
Kd [31, 53]: ≥ 20 µM
Kd [36, 53]: 8 µM
Kd [20, 53]: ≥ 20 µM
Kd [21, 53]: ≥ 20 µM
Kd [45, 53]: ≥ 20 µM
Kd [33, 53]: ≥ 20 µM
